Measured values: PMC6973309
Read-outs that look alike come from different tables or passages of the source.

Columns and labels:
human CX3CR1 (human) [1] = target: human CX3CR1 (human) (UniProt P49238)
human CX3CR1 (human) [2] = target: human CX3CR1 (human) (UniProt P49238); experiment: flow cytometry on cells
human CX3CR1 (human) [3] = target: human CX3CR1 (human) (UniProt P49238); experiment: flow cytometry on cells; remark: listed apart in the source

Sequence of human CX3CR1 (human) (P49238 whole entry): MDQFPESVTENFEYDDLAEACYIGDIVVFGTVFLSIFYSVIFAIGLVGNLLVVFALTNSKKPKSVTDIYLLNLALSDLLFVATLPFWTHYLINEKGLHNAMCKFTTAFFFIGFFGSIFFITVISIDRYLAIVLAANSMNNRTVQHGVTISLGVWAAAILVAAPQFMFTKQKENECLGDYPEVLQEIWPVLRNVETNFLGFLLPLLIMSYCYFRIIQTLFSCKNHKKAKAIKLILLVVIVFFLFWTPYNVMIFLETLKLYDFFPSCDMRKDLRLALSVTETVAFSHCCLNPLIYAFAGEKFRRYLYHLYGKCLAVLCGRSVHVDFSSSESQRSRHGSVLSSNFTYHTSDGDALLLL

Chemotaxis IC50 (blocks m3 with m1) (human CX3CR1 (human) [1])	Ligand Internalization IC50 (blocks m3 with m1) (human CX3CR1 (human) [1])	IC50 (human CX3CR1 (human) [2])	IC50 (human CX3CR1 (human) [3])	Substance
3 nM	0.37 nM	0.7 nM	–	BI 655089 (Fc fusion)
2.7 nM	0.33 nM	0.4 nM	1.6 nM	BI 655088 (VHH)
